* marks the point of attachment. Biotin = O=C1N[C@H]2[C@H](CS[C@H]2CCCCC(=O)*)N1
Columns and labels:
Assay in all cases: SRU BIND biosensor, peptides captured on streptavidin plate
[1] = target: T1, myostatin artificial peptide No 23 (SGSGGECEFVFLQKYPHT) (HELM PEPTIDE1{[O=C1N[C@H]2[C@H](CS[C@H]2CCCCC(=O)[*:2])N1].S.G.S.G.G.E.C.E.F.V.F.L.Q.K.Y.P.H.T.[am]}$$$$V2.0; SMILES …)
T1 construct: also called Peptide 23
T1 peptide: SGSGGECEFVFLQKYPHT
Description: (§1) Work was carried out on an SRU BIND reader (SRU Biosystems). A streptavidin biosensor plate was washed, a baseline reading taken, and biotinylated peptides captured onto the streptavidin coated biosensor plate. The plate was washed again, and a new baseline reading taken, antibody was then added and binding monitored.

[2] = target: T2, myostatin artificial peptide No 11 (SGSGTVDFEAFGWDWIIA) (HELM PEPTIDE1{[O=C1N[C@H]2[C@H](CS[C@H]2CCCCC(=O)[*:2])N1].S.G.S.G.T.V.D.F.E.A.F.G.W.D.W.I.I.A.[am]}$$$$V2.0; SMILES …)
T2 construct: also called Peptide 11
T2 peptide: SGSGTVDFEAFGWDWIIA
Description: as §1

[3] = target: T3, myostatin artificial peptide No 29 (SGSGHTHLVHQANPRGSA) (HELM PEPTIDE1{[O=C1N[C@H]2[C@H](CS[C@H]2CCCCC(=O)[*:2])N1].S.G.S.G.H.T.H.L.V.H.Q.A.N.P.R.G.S.A.[am]}$$$$V2.0; SMILES …)
T3 construct: also called Peptide 29
T3 peptide: SGSGHTHLVHQANPRGSA
Description: as §1

[4] = target: T4, myostatin artificial peptide No 25 (SGSGFVFLQKYPHTHLVH) (HELM PEPTIDE1{[O=C1N[C@H]2[C@H](CS[C@H]2CCCCC(=O)[*:2])N1].S.G.S.G.F.V.F.L.Q.K.Y.P.H.T.H.L.V.H.[am]}$$$$V2.0; SMILES …)
T4 construct: also called Peptide 25
T4 peptide: SGSGFVFLQKYPHTHLVH
Description: as §1

[5] = target: T5, myostatin artificial peptide No 21 (SGSGNYCSGECEFVFLQK) (cysteine pairing not given here)
T5 construct: also called Peptide 21
T5 peptide: Biotin-SGSGNYCSGECEFVFLQK-NH2
Description: as §1

[6] = target: T6, myostatin artificial peptide No 35 (SGSGSAGPCCTPTKMSPI) (cysteine pairing not given here)
T6 construct: also called Peptide 35
T6 peptide: Biotin-SGSGSAGPCCTPTKMSPI-NH2
Description: as §1

[7] = target: T7, myostatin artificial peptide No 15 (SGSGWDWIIAPKRYKANY) (HELM PEPTIDE1{[O=C1N[C@H]2[C@H](CS[C@H]2CCCCC(=O)[*:2])N1].S.G.S.G.W.D.W.I.I.A.P.K.R.Y.K.A.N.Y.[am]}$$$$V2.0; SMILES …)
T7 construct: also called Peptide 15
T7 peptide: SGSGWDWIIAPKRYKANY
Description: as §1

[8] = target: T8, myostatin artificial peptide No 9 (SGSGRYPLTVDFEAFGWD) (HELM PEPTIDE1{[O=C1N[C@H]2[C@H](CS[C@H]2CCCCC(=O)[*:2])N1].S.G.S.G.R.Y.P.L.T.V.D.F.E.A.F.G.W.D.[am]}$$$$V2.0; SMILES …)
T8 construct: also called Peptide 9
T8 peptide: SGSGRYPLTVDFEAFGWD
Description: as §1

[9] = target: T9, myostatin artificial peptide No 33 (SGSGNPRGSAGPCCTPTK) (cysteine pairing not given here)
T9 construct: also called Peptide 33
T9 peptide: Biotin-SGSGNPRGSAGPCCTPTK-NH2
Description: as §1

[10] = target: T10, myostatin artificial peptide No 31 (SGSGVHQANPRGSAGPCC) (cysteine pairing not given here)
T10 construct: also called Peptide 31
T10 peptide: Biotin-SGSGVHQANPRGSAGPCC-NH2
Description: as §1

[11] = target: T11, myostatin artificial peptide No 3 (SGSGDCDEHSTESRCCRY) (cysteine pairing not given here)
T11 construct: also called Peptide 3
T11 peptide: Biotin-SGSGDCDEHSTESRCCRY-NH2
Description: as §1

[12] = target: T12, myostatin artificial peptide No 39 (SGSGTKMSPINMLYFNGK) (HELM PEPTIDE1{[O=C1N[C@H]2[C@H](CS[C@H]2CCCCC(=O)[*:2])N1].S.G.S.G.T.K.M.S.P.I.N.M.L.Y.F.N.G.K.[am]}$$$$V2.0; SMILES …)
T12 construct: also called Peptide 39
T12 peptide: SGSGTKMSPINMLYFNGK
Description: as §1

[13] = target: T13, myostatin artificial peptide No 45 (SGSGGKEQIIYGKIPAMV) (HELM PEPTIDE1{[O=C1N[C@H]2[C@H](CS[C@H]2CCCCC(=O)[*:2])N1].S.G.S.G.G.K.E.Q.I.I.Y.G.K.I.P.A.M.V.[am]}$$$$V2.0; SMILES …)
T13 construct: also called Peptide 45
T13 peptide: SGSGGKEQIIYGKIPAMV
Description: as §1

[14] = target: T14, myostatin artificial peptide No 49 (SGSGGKIPAMVVDRCGCS) (cysteine pairing not given here)
T14 construct: also called Peptide 49
T14 peptide: Biotin-SGSGGKIPAMVVDRCGCS-OH
Description: as §1

[15] = target: T15, myostatin artificial peptide No 7 (SGSGSRCCRYPLTVDFEA) (cysteine pairing not given here)
T15 construct: also called Peptide 7
T15 peptide: Biotin-SGSGSRCCRYPLTVDFEA-NH2
Description: as §1

[16] = target: T16, myostatin artificial peptide No 43 (SGSGLYFNGKEQIIYGKI) (HELM PEPTIDE1{[O=C1N[C@H]2[C@H](CS[C@H]2CCCCC(=O)[*:2])N1].S.G.S.G.L.Y.F.N.G.K.E.Q.I.I.Y.G.K.I.[am]}$$$$V2.0; SMILES …)
T16 construct: also called Peptide 43
T16 peptide: SGSGLYFNGKEQIIYGKI
Description: as §1

[17] = target: T17, myostatin artificial peptide No 47 (SGSGIIYGKIPAMVVDRC) (HELM PEPTIDE1{[O=C1N[C@H]2[C@H](CS[C@H]2CCCCC(=O)[*:2])N1].S.G.S.G.I.I.Y.G.K.I.P.A.M.V.V.D.R.C.[am]}$$$$V2.0; SMILES …)
T17 construct: also called Peptide 47
T17 peptide: SGSGIIYGKIPAMVVDRC
Description: as §1

Measured: binding result

B1: mouse monoclonal antibody 10B3 (antibody, mouse IgG2a, V domains shown)
VH: EVQLQQSGPELVKPGASVKISCKASGYSFTGYFMHWVKQSHGNILDWIGNIYPYNGVSNYNQRFKAKATLTVDKSSSTAYMELRSLTSEDSAVYYCARRYYYGTGPADWYFDVWGTGTTVTVSS
VL: DIKMTQSPSSMYASLRERVTITCKASQDINSYLSWFQQKPGKSPKTLIYRANRLVDGVPSRFSGSGSGQDYSLTISSLEYEDMGIYYCLQCDEFPLTFGAGTKLELK
notes: Murine IgG2a/k; also called 10B3 mouse parental; parental 10B3
no binding: [1] | [2] | [3] | [4] | [5] | [6] | [7] | [8] | [9] | [10] | [11] | [12] | [13] | [14] | [15] | [16] | [17]

— patent US20130142788A1 (published 2013)
